7 substances from US9068994 can be followed below.

For assay [1], the target named is Thyroid Stimulating Hormone (TSH) (UniProt P01215). The experiment in a line: FRET competition, unlabelled Ab pre-bound to Alexa488 antigen; competitor: BHQ-labelled TSH Ab 544.
For assay [2] the target is unchanged. The experiment in a line: FRET competition, unlabelled Ab pre-bound to Alexa488 antigen; competitor: BHQ-labelled 5409.
Assay [3] has the same target. The experiment in a line: i-STAT sandwich cartridge with TSH; row Ab on capture beads; detection conjugate: TSH Ab 544-ALP.
Assay [4] deals with Luteinizing Hormone (LH) (UniProt P01215). The experiment in a line: i-STAT sandwich cartridge, 0.4 mIU/L TSH plus LH; row Ab capture; detection Ab: 5409.
Assay [5] has the same target. The experiment in a line: FRET quenching titration, BHQ-10 antibody with Alexa Fluor 488 antigen, in solution.
Assay [6] addresses Chorionic Gonadotropin (CG) (UniProt P01215). The description is as above.
Assay [7] concerns the target Thyroid Stimulating Hormone (TSH) (UniProt P01215). The assay is described as above.
Assay [8] has as its target Follicle Stimulating Hormone (FSH) (UniProt P01215). Described as above.
Assay [9] has as its target Thyroid Stimulating Hormone (TSH) (UniProt P01215). The experiment in a line: i-STAT sandwich cartridge with TSH; row Ab on capture beads; detection conjugate: 5409-ALP.
Assay [10] shares this target. The experiment in a line: FRET competition, unlabelled Ab pre-bound to Alexa488 antigen; competitor: BHQ-labelled M4.
For assay [11], the target named is Chorionic Gonadotropin (CG) (UniProt P01215). The experiment in a line: i-STAT sandwich cartridge, 0.4 mIU/L TSH plus CG; row Ab capture; detection Ab: 5409.
In assay [12] the target is Thyroid Stimulating Hormone (TSH) (UniProt P01215). The experiment in a line: FRET competition, unlabelled Ab pre-bound to Alexa488 antigen; competitor: BHQ-labelled ME130.
Assay [13] concerns the target Follicle Stimulating Hormone (FSH) (UniProt P01215). The experiment in a line: i-STAT sandwich cartridge, 0.4 mIU/L TSH plus FSH; row Ab capture; detection Ab: 5409.
Assay [14] deals with Thyroid Stimulating Hormone (TSH) (UniProt P01215). The experiment in a line: i-STAT sandwich cartridge with TSH; row Ab on capture beads; detection conjugate: M4-ALP.
For assay [15] the target is unchanged. The experiment in a line: FRET competition, unlabelled Ab pre-bound to Alexa488 antigen; competitor: BHQ-labelled T25C.
Assay [16] shares this target. The experiment in a line: FRET competition, unlabelled Ab pre-bound to Alexa488 antigen; competitor: BHQ-labelled 414B.
The target is the same in assay [17]. The experiment in a line: i-STAT sandwich cartridge with TSH; row Ab on capture beads; detection conjugate: T25C-ALP.
Assay [18] concerns the target Follicle Stimulating Hormone (FSH) (UniProt P01215). The experiment in a line: i-STAT sandwich cartridge, 0.4 mIU/L TSH plus FSH; row Ab capture; detection Ab: T25C.
The target is the same in assay [19]. The experiment in a line: i-STAT sandwich cartridge, 0.4 mIU/L TSH plus FSH; row Ab capture; detection Ab: ME130.
Assay [20] concerns the target Chorionic Gonadotropin (CG) (UniProt P01215). The experiment in a line: i-STAT sandwich cartridge, 0.4 mIU/L TSH plus CG; row Ab capture; detection Ab: ME130.
The target of assay [21] is Luteinizing Hormone (LH) (UniProt P01215). The experiment in a line: i-STAT sandwich cartridge, 0.4 mIU/L TSH plus LH; row Ab capture; detection Ab: ME130.
Assay [22] addresses Thyroid Stimulating Hormone (TSH) (UniProt P01215). The experiment in a line: i-STAT sandwich cartridge with TSH; row Ab on capture beads; detection conjugate: ME130-ALP.
The target of assay [23] is Luteinizing Hormone (LH) (UniProt P01215). The experiment in a line: i-STAT sandwich cartridge, 0.4 mIU/L TSH plus LH; row Ab capture; detection Ab: T25C.
The target of assay [24] is Chorionic Gonadotropin (CG) (UniProt P01215). The experiment in a line: i-STAT sandwich cartridge, 0.4 mIU/L TSH plus CG; row Ab capture; detection Ab: T25C.
Assay [25] addresses Luteinizing Hormone (LH) (UniProt P01215). The experiment in a line: LH-detecting i-STAT cartridge (LH capture, 414B detection), polystyrene LH 5304 scavenger beads added.
The target in assay [26] is Thyroid Stimulating Hormone (TSH) (UniProt P01215). The experiment in a line: i-STAT sandwich cartridge with TSH; row Ab on capture beads; detection conjugate: 414B-ALP.
In assay [27] the target is Chorionic Gonadotropin (CG) (UniProt P01215). The experiment in a line: i-STAT sandwich cartridge, 0.4 mIU/L TSH plus CG; row Ab capture; detection Ab: TSH Ab 544.
For assay [28], the target named is Follicle Stimulating Hormone (FSH) (UniProt P01215). The experiment in a line: i-STAT sandwich cartridge, 0.4 mIU/L TSH plus FSH; row Ab capture; detection Ab: TSH Ab 544.
Assay [29] concerns the target Luteinizing Hormone (LH) (UniProt P01215). The experiment in a line: i-STAT sandwich cartridge, 0.4 mIU/L TSH plus LH; row Ab capture; detection Ab: TSH Ab 544.
For assay [30], the target named is Chorionic Gonadotropin (CG) (UniProt P01215). The experiment in a line: i-STAT sandwich cartridge, 0.4 mIU/L TSH plus CG; row Ab capture; detection Ab: 414B.
Assay [31] has as its target Follicle Stimulating Hormone (FSH) (UniProt P01215). The experiment in a line: i-STAT sandwich cartridge, 0.4 mIU/L TSH plus FSH; row Ab capture; detection Ab: 414B.
Assay [32] concerns the target Luteinizing Hormone (LH) (UniProt P01215). The experiment in a line: i-STAT sandwich cartridge, 0.4 mIU/L TSH plus LH; row Ab capture; detection Ab: 414B.

As usually defined, the Kd is the equilibrium constant for the complex coming apart. Lower therefore signals tighter binding. Turning to “AbCam ME-130 (ab9390) TSH mouse monoclonal antibody”, the relative fluorescence (relative (same pair = 1.0)) in [1] stood at 0.82; in [2], 0.82; in assay [10], 0.77; in assay [12] it was 1; in assay [15], 0.88; in assay [16], 0.99. Moreover, the electrochemical current (sandwich signal) in [3] is 10.8 nA; in assay [9], 54.7 nA; in assay [14] it was 50.5 nA; in assay [17] it was 0.1 nA. In addition, the LH CR (%) (cross reactivity) in [4] was 11.1%. In addition, the dissociation constant (Kd) in assay [5] is 54 nM; in [6], 45 nM; in assay [7] it was 0.04 nM; in assay [8], 70 nM. Besides, in [11], the CG CR (%) (cross reactivity) worked out at 11.8%. Further, the FSH CR (%) (cross reactivity) in assay [13] stood at 3.9%.
As to “Biospacific Cat#5409 SPTNE-5 TSH mouse monoclonal antibody”, the relative fluorescence (relative (same pair = 1.0)) came to 0.93 in assay [1]; 1 in assay [2]; 0.9 in [10]; 0.78 in assay [12]; 0.78 in assay [15]; 0.88 in [16]. Besides, the FSH CR (%) (cross reactivity) was 0.65% in [18] and 2.43% in [19]. The electrochemical current (sandwich signal) in assay [3] is 1.41 nA; in [22], 53.6 nA; in [14], 15.2 nA; in [17] it was 34.6 nA. The CG CR (%) (cross reactivity) in assay [20] is 0.78%; in assay [24] it was 0.96%. For the same substance, the LH CR (%) (cross reactivity) in [21] was 10.1%; in assay [23], 3.76%. For the same substance, the dissociation constant Kd came out at 1000 nM in assay [5], 500 nM in assay [6], 0.1 nM in [7] and 1000 nM in [8].
In assay [25], “Biospacific LH 5304 monoclonal antibody (mus beta-LH, Catalog #5304 SP-5)” yielded a signal left after scavenger beads (% of signal without beads) of 4%.
Consider “Fitzgerald 10C-CR2151M4 TSH mouse monoclonal antibody, clone 157155”, for which the relative fluorescence (relative (same pair = 1.0)) in assay [1] came out at 0.98; in assay [2], 0.94; in assay [10] it was 1; in assay [12] it was 0.76; in assay [15], 0.74; in [16], 0.9. Moreover, the electrochemical current (sandwich signal) in [3] was determined as 0 nA; in assay [22] it was 39.9 nA; in assay [9] it was 20.7 nA; in assay [17], 22.5 nA. The Kd in assay [5] was found to be 300 nM; in assay [6] it was 554 nM; in assay [7], 0.18 nM; in assay [8] it was 210 nM.
In the case of “Fitzgerald Cat#10-T25C TSH mouse monoclonal antibody, clone M94206”, the relative fluorescence (relative (same pair = 1.0)) stood at 0.97 in assay [1]; 0.95 in [2]; 0.92 in [10]; 0.97 in assay [12]; 1 in [15]; 0.97 in assay [16]. Also, the electrochemical current (sandwich signal) is 0.83 nA in assay [3]; 0.68 nA in assay [22]; 49.7 nA in [9]; 40.9 nA in assay [14]; 0.82 nA in [26]. For the same substance, in assay [4], the LH CR (%) (cross reactivity) worked out at 9.89%. For the same substance, the Kd in assay [5] was found to be 35 nM; in assay [6] it was 40 nM; in assay [7], 0.08 nM; in [8] it was 300 nM. Also, the CG CR (%) (cross reactivity) in assay [11] stood at 13.7%. Further, the FSH CR (%) (cross reactivity) in assay [13] turned out to be 6.25%.
Regarding “Seradyn anti-alpha-LH monoclonal antibody Cat#MIT0414B, clone BB3.1.3”, the relative fluorescence (relative (same pair = 1.0)) in assay [1] is 0.83; in [2], 0.81; in assay [10] it was 0.75; in [12], 0.86; in [15], 0.76; in assay [16], 1. Also, the CG CR (%) (cross reactivity) in [27] was 39.2%; in assay [11], 84.6%. Also, the electrochemical current (sandwich signal) in assay [3] was 10.2 nA; in assay [9] it was 40.3 nA; in [14], 41.3 nA. For the same substance, the FSH CR (%) (cross reactivity) in assay [28] was 219%; in [13], 260%. In addition, the results for the LH CR (%) (cross reactivity) in [4] and in assay [29] were 348% and 467%, respectively. The Kd was found to be 0.05 nM in assay [5], 0.05 nM in assay [6], 0.04 nM in assay [7] and 0.1 nM in assay [8].
For “TSH Ab 544 (Abbott Diagnostics Division) (antibody)”, the relative fluorescence (relative (same pair = 1.0)) was found to be 1 in [1]; 0.96 in assay [2]; 0.92 in assay [10]; 0.72 in [12]; 0.71 in [15]; 0.89 in assay [16]. In assay [30], the CG CR (%) (cross reactivity) is 117%. For the same substance, the equilibrium dissociation constant (Kd) in assay [5] worked out at 1000 nM; in assay [6] it was 210 nM; in [7], 1.31 nM; in [8], 1000 nM. Moreover, the electrochemical current (sandwich signal) in [22] was 34.9 nA; in [9], 7.98 nA; in assay [14] it was 0.11 nA; in [26] it was 25 nA; in assay [17] it was 22.4 nA. Also, the FSH CR (%) (cross reactivity) in assay [31] turned out to be 7.15%. Besides, in assay [32], the LH CR (%) (cross reactivity) stood at 11.8%.
